# Where a chain is given by its changes, count along the chain named.
# B1: BIIB-9-622 (antibody, V domains shown)
# VH: QVQLVQSGAEVKKPGASVKVSCKASGYTFTSYYMHWVRQAPGQGLEWMGIINPSGGSTSYAQKFQGRVTMTRDTSTSTVYMELSSLRSEDTAVYYCARDGATTVSYLSFDIWGQGTMVTVSS
# VL: EIVMTQSPATLSVSPGERATLSCRASQSVSSSLAWYQQKPGQAPRLLIYGASTRATGIPARFSGSGSGTEFTLTISSLQSEDFAVYYCQQHSTWPPTFGGGTKVEIK
# B2: BIIB-9-1285 (antibody, V domains shown)
# VH: B1 VH with H35V, D99V, G100P, A101T, T102Y, T103R, V104Y, S108A
# VL: B1 VL with S32N, H91A, T93N, W94F
# B3: BIIB-9-477 (antibody, V domains shown)
# VH: EVQLLESGGGLVQPGGSLRLSCAASGFTFSNYAMSWVRQAPGKGLEWVSAISGSGGSTYYADSVKGRFTISRDNSKNTLYLQMNSLRAEDTAVYYCARGGVYSSSWMRFWGQGTLVTVSS
# VL: B1 VL with Y49F, H91D, S92V, T93N, P96I
# B4: BIIB-9-578 (antibody, V domains shown)
# VH: QLQLQESGPGLVKPSETLSLTCTVSGGSISSSSYYWGWIRQPPGKGLEWIGSISYSGSTYYNPSLKSRVTISVDTSKNQFSLKLSSVTAADTAVYYCARDKYQDYSFDIWGQGTMVTVSS
# VL: DIQMTQSPSSVSASVGDRVTITCRASQGIDSWLAWYQQKPGKAPKLLIYAASSLQSGVPSRFSGSGSGTDFTLTISSLQPEDFATYYCQQANFLPFTFGGGTKVEIK
# B5: BIIB-9-1276 (antibody, V domains shown)
# VH: QLQLQESGPGLVKPSETLSLTCTVSGGSISSSSYYWGWIRQPPGKGLEWIGSIYYSGSTYYNPSLKSRVTISVDTSKNQFSLKLSSVTAADTAVYYCARDVGRTYELFDIWGQGTMVTVSS
# VL: B4 VL with D30S, A91G, F93S, L94F, F96I
# B6: BIIB-9-471 (antibody, V domains shown)
# VH: QVQLQESGPGLVKPSQTLSLTCTVSGGSISSGGYYWSWIRQHPGKGLEWIGYIYYSGSTYYNPSLKSRVTISVDTSKNQFSLKLSSVTAADTAVYYCARSGVSGSGSDNWFDPWGQGTTVTVSS
# VL: EIVLTQSPATLSLSPGERATLSCRASQSVSRYLAWYQQKPGQAPRLLIYDASNRATGIPARFSGSGSGTDFTLTISSLEPEDFAVYYCQQDYNYPFTFGGGTKVEIK
# B7: BIIB-9-558 (antibody, V domains shown)
# VH: EVQLVESGGGLVKPGGSLRLSCAASGFTFSSYSMNWVRQAPGKGLEWVSSISSSSSYIYYADSVKGRFTISRDNAKNSLYLQMNSLRAEDTAVYYCARSYGYGYHDFDLWGRGTLVTVSS
# VL: DIQMTQSPSTLSASVGDRVTITCRASQSIGSWLAWYQQKPGKAPKLLIYKASSLESGVPSRFSGSGSGTEFTLTISSLQPDDFATYYCQQAGSYSFTFGGGTKVEIK
# B8: BIIB-9-472 (antibody, V domains shown)
# VH: EVQLVESGGGLVKPGGSLRLSCAASGFTFSSYSMNWVRQAPGKGLEWVSSISSSSSYIYYADSVKGRFTISRDNAKNSLYLQMNSLRAEDTAVYYCARGGRYSGSWSWNIWGQGTMVTVSS
# VL: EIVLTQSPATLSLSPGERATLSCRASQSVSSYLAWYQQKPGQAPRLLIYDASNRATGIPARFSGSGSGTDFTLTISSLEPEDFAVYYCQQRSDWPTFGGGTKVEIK
# B9: BIIB-9-608 (antibody, V domains shown)
# VH: QLQLQESGPGLVKPSETLSLTCTVSGGSISSSSYYWGWIRQPPGKGLEWIGSIYYSGSTYYNPSLKSRVTISVDTSKNQFSLKLSSVTAADTAVYYCARDRLETSEAGMDVWGQGTTVTVSS
# VL: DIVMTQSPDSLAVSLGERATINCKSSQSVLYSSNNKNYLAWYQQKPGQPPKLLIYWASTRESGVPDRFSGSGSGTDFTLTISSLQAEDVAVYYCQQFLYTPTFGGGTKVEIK
# Biological target: free FIXa (activated Factor IX) (UniProt P00740 47-191; P00740 227-461)
# Assay: BLI
row,Binder,Kd [nM]
1,B1,18
2,B2,60.2
3,B3,8.63
4,B4,4.91
5,B5,32.4
6,B6,9.11
7,B7,1.1
8,B8,8.99
9,B9,11.4

# From patent publication US20230192896A1 (published 2023)
